Measured values as given in the DeepSol protein solubility set.

Assay: soluble on expression in E. coli; label from the status in PepcDB or PDB records

Sequence | soluble on expression in E. coli
MIQDTRPLIRVVAGILLDSDGNYLLSSRPEGKPYAGYWEFAGGKVEAGETDFQALQREFEEELGIRILAATPWLTKIHSYEHARVCLKFLWVNPDQWTGKPQSREGQEWSWQKAGDFTVAPMLPANGALLRSLSVPRRLYGSLKTGLHGENSMGAYRVLPLGSAEGSGANVLMEAAQWQDRPEHADSVWMVVQTREQWRRAQEKGADAVVWRVCDDVQAQEAAEALRQGVSVPLVLAANGQTVARYGKLWLGLGAHVVVRDETIGKNHE | not soluble
MSDHFVSERQALILAQLRQSGRVLAQDLAQNFGVSEDTVRRDLREMAARGECLRVYGGALLSDSTTVPLKTRITEDADRKATLARAVVPLIEPGMVVFIDAGSTNLAIARAIPAGLNLTVVTNTPAIAADLTGRADIDLVLIGGKVDPAVGAAIDAMALRQLELMRPDLCVLGVCGVAAETGLSADVFEDAVFKRLACSASQRVIAAITTEKLGHKAAFHVHDFSPPLCLVLERDADRALVESLSAQGVDVYCGEDDAAPFSHGQVLEHHHHHH | soluble
MSLGETFTITKMNVERIKQEERLFCKSCASPVMIKAGQIKIPHFAHEKTMKCAFASEGESEEHLAAKKQIMAWYCYQSIPVEVESYFPEIKRQADIFVNGKAVIEFQRSSISISEMIQRTMDYLSIGLEVHWILGQVVRKEKGRICLSAFQQAFIQSDKKLGYHFWHYSTEREICTLYYHLTFEKGNRFFASEMKFSMKAPFSEWKKKLARIITRHAYVKRDRELERQKICFYYAKFKKHGQFMQKLFNAGYYLHYLPKEIGVDLEEQFLVITPAVEWQFDLWEKFFKGLEKGDTFSECCFFESFQSVVTQILTIWLSPNESLKLGKSYLSYLIGEGVLSTIPDNRYRVKRKMVFTNTRAAHIEGHHHHHH | not soluble
GSSGSSGNWIDVRYDLEKIESLIQSIHIDTTLYTDSDFHPSCKVTAMNCFLLELQVILHEYSNMTLNETVRNVLYLANSTLSSNKNVAESGCKECEELEEKTFTEFLQSFIRIVQMFINTS | soluble
MGSDKIHHHHHHMSSLQISQGTFRLSDTKTLHLDSLTLNAGDSWAFVGANGSGKSALARALAGELPLLTGERQCRFTRITRLSFEQLQKLVSDEWQRNNTDMLSPGEDDTGRTTAEIIQDDVHHPARCAILAQQFGISALLDRRFKYLSTGETRKALLCQALMSEPELLILDEPFDGLDVTARQQLAQRLTALNQAGMTLALVLNRFDEIPDFVQFAGVLADCTLAETGTTAELLQRALVAQLAHSERLTDVQLPEPDEPSARHALPDGEPRIVLNDGVVSYNDRPILHHLSWRVNPGEHWQIVGPNGAGKSTLLSLITGDHPQGYSNDLTLFGRRRGSGETIWDIKKHIGYVSSSLHLDYRVSTTVRNVILSGYFDSIGIYQAVSDRQRKLAQQWLDILGIDKRTADAPFHSLSWGQQRLALIVRALVKHPTVLILDEPLQGLDPLNRQLVRRFVDVLIRQGETQLLFVSHHAEDAPACITHRLEFVPEGERYKYVSGRCNN | not soluble
ANVEIYTKETCPYCHRAKALLSSKGVSFQELPIDGNAAKREEMIKRSGRTTVPQIFIDAQHIGGYDDLYALDARGGLDPLLK | soluble
DPTQSVRAYYIQNGDSTKTVIIGQGWTEHVDWIGYVSKIWYDMGYNVLMPSQRGQFLSDGDNLTFGYQDKYDWLNWVKMVDERNGADSQVVFYGQSLGADTVLEAASVPGLSKSVKAVVSDAGYATLPELGSSLYNKAITAVSNALQSIGLPAITSLPFLSYDKIVAAMNARLIKEQGFSVDDLSATDAASKITIPLLLIHTQDDAFIPYTQSLELAAANHSANQEVWILPGTVGGHAAANNAILQYRQHLLAFLTPLLSVADAED | not soluble
LKDTLHNSELDDAERSSSDINNLFHSKPVKDISALDLNASLGNFQEIIIYDEHNNKLFETSNDNTVRVEPGYEHRYFDRVIKKRYKGIEYLIIKEPITTQDFKGYSLLIHSLENYDNIVKS | not soluble
AMGQTVTTPLSLTLGHWKDVERIAHNQSVDVKKRRWVTFCSAEWPTFNVGWPRDGTFNRDLITQVKIKVFSPGPHGHPDQVPYIVTWEALAFDPPPWVKP | soluble
MAGLGHPAAFGRATHAVVRALPESLGQHALRSAKGEEVDVARAERQHQLYVGVLGSKLGLQVVELPADESLPDCVFVEDVAVVCEETALITRPGAPSRRKEVDMMKEALEKLQLNIVEMKDENATLDGGDVLFTGREFFVGLSKRTNQRGAEILADTFKDYAVSTVPVADGLHLKSFCSMAGPNLIAIGSSESAQKALKIMQQMSDHRYDKLTVPDDIAANCIYLNIPNKGHVLLHRTPEEYPESAKVYEKLKDHMLIPVSMSELEKVDGLLTCCSVLINKKVDS | not soluble
